A word on the Kd: it is the free concentration of one partner at which half of the binding sites on the other are occupied at equilibrium, for simple one-to-one binding. The low end stands for higher affinity, the high end for lower affinity.

In experiment [1] the target is Biarylitide crosslinking cytochrome P450Blt. In words: UV-visible absorbance titration.
Experiment [2] addresses Cytochrome P450 RufO (Streptomyces atratus). Briefly: UV-visible absorbance titration.

Turning to “Nle-RYLH (Nle-1), BytA pentapeptide MRYLH with norleucine in place of Met”, the figures for the Kd in experiment [1] and in experiment [2] were 2.1 µM and 0.84 µM, respectively.

The record behind these values is doi:10.1101/2024.07.12.603347.
